Reference: US20100119506A1, “Effectors of PAR-2 Activation and Their Use in the Modulation of Inflammation” (BOEHRINGER INGELHEIM INTERNATIONAL GMBH, priority 2008, published 2010)

Assays:
PAR-2 peptide = PAR-2 peptide (Homo sapiens, UniProt P55085); experiment: ELISA binding to PAR-2 peptide; settings: peptide coupled to Transferrin
Procedure: (§1) The molecular selectivity of antibodies for PAR-2 versus PAR-1 and PAR-4 was assessed using peptides derived from the N-terminal regions of all three PARs: […]

PAR-2 [1] = target: T1, PAR-2 (Homo sapiens, UniProt P55085); experiment: Binding to PAR-2 transfected HEK293 cells; format: cell-based; design: expressed in transfected cells; host or cells: HEK293; settings: for Ratio of EC50 Fab EC50 IgG: HEK-PAR-2 binding; for EC50: Fab, read-out: Binding of Fab to HEK-PAR-2 (#3) (3RBO64) EC50
T1 sequence (P55085 26-397): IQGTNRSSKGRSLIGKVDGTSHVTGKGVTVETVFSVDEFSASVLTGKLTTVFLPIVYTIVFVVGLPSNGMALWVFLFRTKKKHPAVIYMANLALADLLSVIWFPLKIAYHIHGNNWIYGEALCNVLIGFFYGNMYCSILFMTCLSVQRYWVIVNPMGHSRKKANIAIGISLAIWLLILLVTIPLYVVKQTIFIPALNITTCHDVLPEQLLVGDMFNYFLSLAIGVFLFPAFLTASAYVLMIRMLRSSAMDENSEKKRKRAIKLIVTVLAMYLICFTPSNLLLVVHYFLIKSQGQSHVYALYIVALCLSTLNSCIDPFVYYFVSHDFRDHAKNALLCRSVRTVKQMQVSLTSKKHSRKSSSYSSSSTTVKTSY
Excerpt: These Fabs were then converted to the IgG4_Pro (“IgG4p”) format. The IgG4_Pro antibodies consist of the variable VH and VL regions derived from corresponding Fabs fused to the constant regions of human IgG4 including a Ser241Pro mutation in the hinge region of the H-chain. The proline substitution in the hinge region is known to prevent the formation of half-molecules in natural human IgG4 molecules (Angal et al. (1993) Molec. Immunol. 30:105-108).

PAR-4 peptide = target: T2, PAR-4 peptide (Homo sapiens, UniProt Q96RI0, C54S); experiment: ELISA binding to PAR-4 peptide
T2 sequence (Q96RI0 44-71 C54S): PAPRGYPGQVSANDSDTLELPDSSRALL
Procedure: as §1

PAR-1 peptide = target: T3, PAR-1 peptide (Homo sapiens, UniProt P25116); experiment: ELISA binding to PAR-1 peptide
T3 sequence (P25116 38-66 limits assumed): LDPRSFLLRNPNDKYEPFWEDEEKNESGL
Procedure: as §1

PAR-2 [2] = target: T1, PAR-2; experiment: Trypsin induced calcium response (FLIPR) in A549 cells; format: cell-based; design: expressing endogenous PAR-2; endogenous in cells; host or cells: A549; settings: for inhibition of trypsin mediated calcium response/release in A549 (in words): full antibodies
Procedure: Using A549 cells, PAR-2 activation was measured by detecting the calcium response following trypsin stimulation. Fabs were tested in this assay for their ability to inhibit this response. […] Antibody concentrations are expressed as μg/ml (FIG. 6).
(§2) Thrombin activates PAR-1, whereas PAR-2 is activated by trypsin in A549 cells.

mouse PAR-2 = target: T4, mouse PAR-2 (Mus musculus, UniProt P55086); experiment: FLIPR trypsin-induced calcium release in mouse LLC cells; format: cell-based
T4 construct: endogenous in cells; host or cells: LLC (mouse Lewis lung carcinoma)
T4 sequence (P55086 26-399): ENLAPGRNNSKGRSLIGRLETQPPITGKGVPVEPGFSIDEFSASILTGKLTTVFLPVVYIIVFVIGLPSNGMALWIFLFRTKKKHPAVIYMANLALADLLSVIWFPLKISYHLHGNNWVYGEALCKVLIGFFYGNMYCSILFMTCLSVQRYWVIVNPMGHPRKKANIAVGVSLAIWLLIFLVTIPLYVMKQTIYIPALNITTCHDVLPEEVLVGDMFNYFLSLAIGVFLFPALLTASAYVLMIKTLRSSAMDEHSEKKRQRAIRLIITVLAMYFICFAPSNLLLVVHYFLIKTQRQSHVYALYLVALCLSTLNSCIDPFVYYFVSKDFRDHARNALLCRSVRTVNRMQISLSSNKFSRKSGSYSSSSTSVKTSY
Procedure: To further assess functional cross-reactivity with mouse PAR-2, the antibodies were tested in FLIPR assays with the mouse Lewis lung carcinoma (LLC) cell line.

PAR-1 = target: T5, PAR-1 (Homo sapiens, UniProt P25116); experiment: Thrombin-induced calcium response (FLIPR) in A549 cells; format: cell-based; settings: antibody concentrations up to 300 nM
T5 construct: endogenous in cells; host or cells: A549
T5 sequence (P25116 22-425): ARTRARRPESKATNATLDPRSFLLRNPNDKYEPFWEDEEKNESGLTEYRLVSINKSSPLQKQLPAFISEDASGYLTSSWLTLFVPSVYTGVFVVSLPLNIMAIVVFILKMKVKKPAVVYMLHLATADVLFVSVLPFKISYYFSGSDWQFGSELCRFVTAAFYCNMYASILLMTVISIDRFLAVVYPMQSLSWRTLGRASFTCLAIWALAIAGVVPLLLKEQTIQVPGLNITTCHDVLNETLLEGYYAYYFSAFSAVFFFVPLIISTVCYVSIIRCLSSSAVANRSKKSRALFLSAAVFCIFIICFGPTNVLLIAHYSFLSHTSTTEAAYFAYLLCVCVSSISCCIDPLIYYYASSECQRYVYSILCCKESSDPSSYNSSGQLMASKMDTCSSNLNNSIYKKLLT
Excerpt: as §2

B1: Ab4999: affinity matured from Ab3777, L-CDR3 optimized; light chain SEQ ID NO:27, heavy chain SEQ ID NO:7 (antibody, V domains shown)
VH: QVQLVESGGGLVQPGGSLRLSCAASGFTFSSYAMNWVRQAPGKGLEWVSTISYSSSATSYADSVKGRFTISRDNSKNTLYLQMNSLRAEDTAVYYCARIQNDPMDVWGQGTLVTVSS
VL: DIELTQPPSVSVAPGQTARISCSGDNLGKKYVQWYQQKPGQAPVLVIYDDSNRPSGIPERFSGSNSGNTATLTISGTQAEDEADYYCQTWDYSSIRDETNVFGGGTKLTVLGQ
modifications: Antibody identified via phage display; Antibody modified via affinity maturation
- binding to PAR-2 peptide (in words) (PAR-2 peptide): specific binding
- Ratio of EC50 Fab EC50 IgG (PAR-2 [1]): 0.3
- binding to PAR-4 peptide (in words) (PAR-4 peptide): no binding
- binding to PAR-1 peptide (in words) (PAR-1 peptide): did not exhibit detectable binding

B2: Ab4997: affinity matured from Ab3777, H-CDR2 optimized; heavy chain SEQ ID NO:23, light chain SEQ ID NO:6 (antibody, V domains shown)
VH: QVQLVESGGGLVQPGGSLRLSCAASGFTFSSYAMNWVRQAPGKGLEWVSAISYNGKLKGYADSVKGRFTISRDNSKNTLYLQMNSLRAEDTAVYYCARIQNDPMDVWGQGTLVTVSS
VL: DIELTQPPSVSVAPGQTARISCSGDNLGKKYVQWYQQKPGQAPVLVIYDDSNRPSGIPERFSGSNSGNTATLTISGTQAEDEADYYCSSWDVGSDGWVFGGGTKLTVLGQ
modifications: Antibody modified via affinity maturation; Antibody identified via phage display
- EC50 (PAR-2 [1]): 3.03 nM
- Ratio of EC50 Fab EC50 IgG (PAR-2 [1]): 8.0

B3: Ab4994: affinity matured from Ab3777, H-CDR2 optimized; heavy chain SEQ ID NO:21, light chain SEQ ID NO:6 (antibody, V domains shown)
VH: QVQLVESGGGLVQPGGSLRLSCAASGFTFSSYAMNWVRQAPGKGLEWVSAISYSGHLTGYADSVKGRFTISRDNSKNTLYLQMNSLRAEDTAVYYCARIQNDPMDVWGQGTLVTVSS
VL: DIELTQPPSVSVAPGQTARISCSGDNLGKKYVQWYQQKPGQAPVLVIYDDSNRPSGIPERFSGSNSGNTATLTISGTQAEDEADYYCSSWDVGSDGWVFGGGTKLTVLGQ
modifications: Antibody modified via affinity maturation; Antibody identified via phage display
- EC50 (PAR-2 [1]): 1.9 nM
- Ratio of EC50 Fab EC50 IgG (PAR-2 [1]): 4.8

B4: Ab5003: affinity matured from Ab3777, H-CDR2 optimized; heavy chain SEQ ID NO:24, light chain SEQ ID NO:6 (antibody, V domains shown)
VH: QVQLVESGGGLVQPGGSLRLSCAASGFTFSSYAMNWVRQAPGKGLEWVSAISYKGHLTGYADSVKGRFTISRDNSKNTLYLQMNSLRAEDTAVYYCARIQNDPMDVWGQGTLVTVSS
VL: DIELTQPPSVSVAPGQTARISCSGDNLGKKYVQWYQQKPGQAPVLVIYDDSNRPSGIPERFSGSNSGNTATLTISGTQAEDEADYYCSSWDVGSDGWVFGGGTKLTVLGQ
modifications: Antibody modified via affinity maturation; Antibody identified via phage display
- EC50 (PAR-2 [1]): 7.03 nM
- Ratio of EC50 Fab EC50 IgG (PAR-2 [1]): 15.3

B5: Par-C: codon-optimized anti-PAR-2 antibody; Ab4999 light chain (SEQ ID NO:37), Ab5007 or Ab5151 heavy chain (SEQ ID NO:39) (antibody, V domains shown)
VH: QVELVESGGGLVQPGGSLRLSCAASGFTFSSYAMNWVRQAPGKGLEWVSAISFSGHLTGYADSVKGRFTISRDNSKNTLYLQMNSLRAEDTAVYYCARIQNDPMDVWGQGTLVTVSS
VL: DIELTQPPSVSVAPGQTARISCSGDNLGKKYVQWYQQKPGQAPVLVIYDDSNRPSGIPERFSGSNSGNTATLTISGTQAEDEADYYCQTWDYSSIRDETNVFGGGTKLTVLGQ
modifications: Optimized cDNA sequence of variable region of Ab5007 or Ab5151 heavy chain; Optimized cDNA sequence of variable region of Ab4999 light chain
- inhibition of trypsin mediated calcium response/release in A549 (in words) (PAR-2 [2]): potent inhibition
- IC50 (PAR-2 [2]; trypsin stimulated, value (SD)): 1 nM
- inhibition of trypsin-induced calcium release in LLC cells (in words) (mouse PAR-2): efficient inhibition
- IC50 (mouse PAR-2; trypsin-induced, value (SD)): 0.7 nM

B6: Ab5151: cross-cloned: light chain of Ab4999 combined with the heavy chain of Ab5007 (antibody, V domains shown)
VH: QVQLVESGGGLVQPGGSLRLSCAASGFTFSSYAMNWVRQAPGKGLEWVSAISFSGHLTGYADSVKGRFTISRDNSKNTLYLQMNSLRAEDTAVYYCARIQNDPMDVWGQGTLVTVSS
VL: DIELTQPPSVSVAPGQTARISCSGDNLGKKYVQWYQQKPGQAPVLVIYDDSNRPSGIPERFSGSNSGNTATLTISGTQAEDEADYYCQTWDYSSIRDETNVFGGGTKLTVLGQ
- binding to PAR-2 peptide (in words) (PAR-2 peptide): specific binding
- inhibition of trypsin mediated calcium response/release in A549 (in words) (PAR-2 [2]): significant inhibition
- inhibition of the thrombin induced calcium response (in words) (PAR-1): no inhibition
- binding to PAR-4 peptide (in words) (PAR-4 peptide): no binding
- binding to PAR-1 peptide (in words) (PAR-1 peptide): did not exhibit detectable binding

B7: Ab5007: affinity matured from Ab3777, H-CDR2 optimized; heavy chain SEQ ID NO:26, light chain SEQ ID NO:6 (antibody, V domains shown)
VH: QVQLVESGGGLVQPGGSLRLSCAASGFTFSSYAMNWVRQAPGKGLEWVSAISFSGHLTGYADSVKGRFTISRDNSKNTLYLQMNSLRAEDTAVYYCARIQNDPMDVWGQGTLVTVSS
VL: DIELTQPPSVSVAPGQTARISCSGDNLGKKYVQWYQQKPGQAPVLVIYDDSNRPSGIPERFSGSNSGNTATLTISGTQAEDEADYYCSSWDVGSDGWVFGGGTKLTVLGQ
modifications: Antibody modified via affinity maturation; Antibody identified via phage display
- EC50 (PAR-2 [1]): 9.66 nM
- Ratio of EC50 Fab EC50 IgG (PAR-2 [1]): 19.3
